Laboratory results published in article PMC12366701.
Blank lines part the entries; values can stand above or below the molecule they belong to.

Tests used:
[1] = molecular target: porcine double-stabilized microtubules (dsMTs) (porcine (endogenous in pig brain)) (UniProt P02550); experiment: TIRF microscopy binding assay; porcine dsMTs attached to coverslips via an anti-β-tubulin antibody; 100 nM Janelia Fluor 549-labelled TTLL11 variants in 40 mM tris-HCl pH 7.0, 1 mM TCEP, 1 mM MgCl2, 5% glycerol, casein, 10 μM paclitaxel; 22°C; intensity per μm of MT normalized to the control
Sequence of UniProt P02550 (P02550 whole entry, chain 1 of 2): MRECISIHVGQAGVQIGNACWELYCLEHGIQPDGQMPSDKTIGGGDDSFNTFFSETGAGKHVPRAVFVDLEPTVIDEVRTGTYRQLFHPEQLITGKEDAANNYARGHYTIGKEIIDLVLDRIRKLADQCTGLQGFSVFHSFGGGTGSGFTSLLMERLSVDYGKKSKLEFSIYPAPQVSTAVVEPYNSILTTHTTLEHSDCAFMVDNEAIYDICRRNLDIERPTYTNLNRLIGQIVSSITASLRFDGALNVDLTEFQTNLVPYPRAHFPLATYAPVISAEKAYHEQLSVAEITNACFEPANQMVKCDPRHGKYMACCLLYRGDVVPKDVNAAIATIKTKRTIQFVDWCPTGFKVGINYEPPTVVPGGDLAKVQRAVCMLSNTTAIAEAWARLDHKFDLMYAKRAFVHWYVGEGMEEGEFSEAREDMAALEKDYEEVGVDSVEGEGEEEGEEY
Sequence of UniProt P02550 (P02554 whole entry, chain 2 of 2, further chain): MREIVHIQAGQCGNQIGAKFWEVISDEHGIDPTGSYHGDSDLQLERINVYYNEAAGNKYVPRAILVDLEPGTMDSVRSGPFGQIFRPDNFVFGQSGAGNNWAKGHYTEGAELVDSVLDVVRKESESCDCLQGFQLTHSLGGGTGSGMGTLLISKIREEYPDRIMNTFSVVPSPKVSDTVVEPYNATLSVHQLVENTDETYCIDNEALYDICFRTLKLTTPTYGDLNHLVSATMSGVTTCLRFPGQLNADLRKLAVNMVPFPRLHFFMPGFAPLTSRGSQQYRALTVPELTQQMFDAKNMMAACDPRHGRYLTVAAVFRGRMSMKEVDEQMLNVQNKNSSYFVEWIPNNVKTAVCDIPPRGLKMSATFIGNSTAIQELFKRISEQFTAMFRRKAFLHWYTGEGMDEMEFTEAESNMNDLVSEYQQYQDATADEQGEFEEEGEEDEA

[2] = molecular target: AspN-treated porcine dsMTs (β-tubulin C-tail removed) (porcine (endogenous in pig brain)) (UniProt P02550); experiment: as above

percent reduction of the fluorescence signal intensity [1]: 60%
Molecule: hTTLL11 R601E mutant (from UniProt Q8NHH1 1-710) (enzyme)

percent reduction of the fluorescence signal intensity [1]: 80%
Molecule: hTTLL11 I594W mutant (from UniProt Q8NHH1 1-710) (enzyme)

percent lower fluorescence signal than on intact MTs [2]: 50%
B1: human TTLL11 (hTTLL11), full-length (enzyme)
chain: MRRGSSESELAARWEAEAVAAAKAAAKAEAEATAETVAEQVRVDAGAAGEPECKAGEEQPKVLAPAPAQPSAAEEGNTQVLQRPPPTLPPSKPKPVQGLCPHGKPRDKGRSCKRSSGHGSGENGSQRPVTVDSSKARTSLDALKISIRQLKWKEFPFGRRLPCDIYWHGVSFHDNDIFSGQVNKFPGMTEMVRKITLSRAVRTMQNLFPEEYNFYPRSWILPDEFQLFVAQVQMVKDDDPSWKPTFIVKPDGGCQGDGIYLIKDPSDIRLAGTLQSRPAVVQEYICKPLLIDKLKFDIRLYVLLKSLDPLEIYIAKDGLSRFCTEPYQEPTPKNLHRIFMHLTNYSLNIHSGNFIHSDSASTGSKRTFSSILCRLSSKGVDIKKVWSDIISVVIKTVIALTPELKVFYQSDIPTGRPGPTCFQILGFDILLMKNLKPILLEVNANPSMRIEHEHELSPGVFENVPSLVDEEVKVAVIRDTLRLMDPLKKKRENQSQQLEKPFAGKEDALDGELTSAPDCNANPEAHLPSICLKQVFPKYAKQFNYLRLVDRMANLFIRFLGIKGTMKLGPTGFRTFIRSCKLSSSSLSMAAVDILYIDITRRWNSMTLDQRDSGMCLQAFVEAFFFLAQRKFKMLPLHEQVASLIDLCEYHLSLLDEKRLVCGRGVPSGGRPPHRGPPQEPSPSAQPAGDNPPPRTSCANKLSHPRHTLS
modifications: Janelia Fluor 549-HALO probe on the HALO tag (TIRF assay)
